What was measured:
[1] = target: BxpB (exosporium basal layer protein) (Bacillus anthracis)
[2] = target: BxpB (exosporium basal layer protein) (Bacillus anthracis); experiment: densitometry of anti-BxpB and anti-eGFP immunoblots
[3] = target: BxpB (exosporium basal layer protein) (Bacillus anthracis); experiment: LC-MS/MS and immunoblot analyses of BxpB-BclA and BxpB-(BclA NTD-eGFP) complexes

## BclA NTD-enhanced green fluorescence protein (eGFP) fusion protein
[1]
  frequency of multiple attachments: 18%
[2]
  fusion proteins per molecule of BxpB (band 1) (per molecule of BxpB): 1
  fusion proteins per molecule of BxpB (band 2) (per molecule of BxpB): 2
  fusion proteins per molecule of BxpB (band 3) (per molecule of BxpB): 3

## BclA (collagen-like glycoprotein of the Bacillus anthracis exosporium nap)
[1]
  frequency of multiple attachments: 57%
[3]
  NTDs attached to a single molecule of BxpB (per molecule of BxpB): < 3

— patent publication US20140323691A1
